According to patent US20110305703A1, “ISOLATED VEGF-C AND VEGF-D PEPTIDES AND USES THEREOF” (Vegenics Pty Limited, priority 2008, published 2011):

Test system: VDnmAb
Assay: Western blot of conditioned media containing VEGF-DΔNΔC variants probed with VDnmAb
Format: binding
Conditions: conditioned media of 293-F cells; in comparison to VEGF-DΔNΔC
Excerpt: Site-directed mutagenesis. DNA encoding VEGF-DΔNΔC, a form of mature human VEGF-D tagged at the N-terminus with the FLAG octapeptide (FIG. 11; SEQ ID NO: 145), was subjected to site-directed mutagenesis by PCR to generate VEGF-DΔNΔC variants. Mutations were introduced by amplification with the following primers: N147Q with 5'-[…] NO: 146) and 5'-[…] with 5'-[…] NO: 148) and 5'-[…] with 5'-[…] NO: 150) and 5'-[…] with 5'-[…] NO: 152) and 5'-[…] with 5'-[…] NO: 154) and 5'-[…] with 5'-[…] NO: 156) and 5'-[…] with 5'-[…] NO: 158) and 5'-[…] NO: 159) (FIG. 12). The desired mutations, as well as the absence of any unwanted mutations, in the resulting DNA fragments were confirmed by nucleotide sequencing. Expression of VEGF-DΔNΔC variants. Plasmids containing DNA encoding VEGF-DΔNΔC or its variants were used for transient transfection of 293-F cells with the FreeStyle MAX 293 Expression System according to manufacturer's instructions (Invitrogen). Cells expressing each variant were cultured in serum-free medium, and 30 ml of conditioned media was collected 7 days post-transfection and used for analysis. Western Blot Analysis. Conditioned media containing different variants of VEGF-DΔNΔC were resolved by SDS-PAGE, transferred to nitrocellulose membrane, probed with M2 anti-FLAG or VDnmAb antibodies labeled with IRDye 800CW according to manufacturer's instructions (LI-COR), and detected with an Odyssey Infrared Imaging System (LI-COR).

Molecule | VDnmAb binding to VEGF-DΔNΔC variant in Western blot
S150G/L151V: VEGF-DΔNΔC variant with double mutation S150G/L151V (mouse residues) (protein) MYREWVVVNVFMMLYVQLVQGSSNEHGPVKRSSQSTLERSEQQIRAASSLEELLRITHSEDWKLWRCRLRLKSFTSMDSRSASHRSTRFAATFYDIETLKVIDEEWQRTQCSPRETCVEVASELGKSTNTFFKPPCVNVFRCGGCCNEEGVICMNTSTSYISKQLFEISVPLTSVPELVPVKVANHTGCKCLPTAPRHPYSIIRRSIQIPEEDRCSHSKKLCPIDMLWDSNKCKCVLQEENPLAGTEDHSHLQEPALCGPHMMFDEDRCECVCKTPCPKDLIQHPKNCSCFECKESLETCCQKHKLFHPDTCSCEDRCPFHTRPCASGKTACAKHCRFPKEKRAAQGPHSRKNP | complete loss of VDnmAb binding
E148S: VEGF-DΔNΔC variant with mutation E148S (protein) DYKDDDDKFYDIETLKVIDEEWQRTQCSPRETCVEVASELGKSTNTFFKPPCVNVFRCGGCCNSESLICMNTSTSYISKQLFEISVPLTSVPELVPVKVANHTGCKCLPTAPRHPYS | complete loss of VDnmAb binding
E148S and S150G double mutation: VEGF-DΔNΔC variant containing both E148S and S150G (VEGF-C residues) (protein) DYKDDDDKFYDIETLKVIDEEWQRTQCSPRETCVEVASELGKSTNTFFKPPCVNVFRCGGCCNSEGLICMNTSTSYISKQLFEISVPLTSVPELVPVKVANHTGCKCLPTAPRHPYS | complete loss of VDnmAb binding
